In this assay the target is motavizumab Fab. The experiment in a line: SPR.

One may read the Kd as the concentration at which binding is half-saturated. A higher Kd goes with lower affinity.

On to “RSV F peptide (motavizumab epitope peptide)”, for which the Kd came out at 0.241 µM. This counts as sub-micromolar.

These data come from PMC3107930.
